Reference: the domain aggregation screens of Martell et al. (2025)

Test: soluble fraction after stress (log2 fold change); higher = more stays soluble; pooled small domains, quantitative proteomics
Details: stress: 75 degC
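Note: 20 min heating vs room temperature control held 20 min.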

| Sequence | soluble fraction (log2) |
| --- | --- |
| HMAEAPGSVELLAERLRPWWEIHGGEWGSKTKALRFLFGDQAPVAGSYWRALEAAIAQIESTT | -0.692 |
| HMAEKNALWEEDAVYAADSSALARDGYDAIVRTDKGGKKGYLVVGTGGRERFMPLQTLVMLGYLKK | -0.433 |
| HMAEKRTAIITTARADIRQKPEATAPLAFEAVKDVVLELTDKPADGWVRVKHRDGSTGYIRINQI | 0.0638 |
| HMAELAKAKLDAAVQVALLKAGALDTDYLAYKLQGMDGVALDDKGSLTGWDTTLETLKSQYPTQFA | -0.368 |
| HMAEPTLNERLREALSDPAKLKIAKAIKAKYPIITARDIDTFLNMHEKDIENGADPMDEFEEFFHANY | 0.201 |
| HMAEPYDEDKVMEHLYIKGKDVVIAHLKHLKEHNEHVWLKKGVEWMQKNQDRLGFDMMEVIYVVHNH | -0.833 |
| HMAEQEELDAIRPDLDGQEIMDILGIKPGREVGAARNFLLELRLDEGPLGYDEAVSRLLTWWAERT | -0.0583 |
| HMAETLLWADAAQEGLNRIVAAQPILVRISAAKRLRDASEQAAKAAGVSTVEIGHVQHASESLQFGDA | 0.0809 |
| HMAETLRLVGATNLNTLARARHPDDLAARNEFRRAIAQANPALFAGKSKVGSVSLPAGTVLALPPEV | 0.0163 |
| HMAEVDDESIKLYDGGYQSNTTKSRLNALLSEFGYDTEHVFQKQFEWFISIFDLTEKAMRTVPFSNGMRL | 0.0627 |
| HMAEVGDFTLAELIKVLFNEAGVLKAPVELRNDNTGGLQYRVGAYTDSETGWETIASIADLKGA | -0.734 |
| HMAEWLLVQLTNGNWFYGEVIEKTDATIVLNTDILGKVSIQKLDIRRSISGPLTAAKRQEIEDSERAKD | -1.65 |
| HMAFDDAHYKDMITSYLKKFKKGNRSEIENLIIPKLSEVLVEKQKKDKVKNLLQALRKDNQIRLKGKYWYL | 0.422 |
| HMAFIEADIGKRIKSLRNKKRITLESLAAETGFTKGYLSKVETSEKAPPVSTLGSIARALGVSISTLLGE | -1.31 |
| HMAFKDDDVQKAYDRYMDRYGELSVLYSDNGLKVDDDLFYKNNIPPNGKFTKEFFDELYELVNMEFINNY | -0.173 |
| HMAFRLPNGYGTIRRLTGNRRKPYVALVNPTQVFDDEKGTSHYKYDLLGTFAEKIDAYNAVMQYHKSPGGL | -1.13 |
| HMAGAPANLAARLREQILQGAYHDGQRLPAERHLAAEHGVSRGTVREALRLLEQGALLTRKRGSGSYVTYP | -0.516 |
| HMAGDVVVEVVGKVRDPQVVTLPKGSRVQDALEAAGGVKPGVNTTDQNLARLLVDGEQIRIGLSS | 0.107 |
| HMAGFGDSLEKMSDAVEALKLLMSTEDARNDQNIQKIARELKDVFNKYRTHLRKSYPDQYDRIKSTL | -0.742 |
| HMAGGNHPTRLELLDSAAHIAERDGTSALTVDAITKSAGHAKGTFYIHFDDRADLLVEMHRR | -0.247 |
| HMAGIPIHMSQLKQIILLLSQGYPIKGIARETGVSRNTIKGYLQTLTSQDLNVTDALKLENIQLEYLLRSP | -1.97 |
| HMAGLYSLLLVELPMERLPEDLPAIKAAWLKTGDTEAFKVALQAMSSRGWTIAVPGKHRDTQMTQL | 0.259 |
| HMAGPVLTPEEAEVLRILADHGEMTVDNISAEGKMSAAVVLRGLGVLSAYGLVAPGGPGRWRSE | -0.806 |
| HMAGTDLSERESEIAMLLLKGYPYKLIASRLYISESTVKSHVQNIYGKLGIHSRTELIEQFSAS | -0.649 |
| HMAGTPAIVKWFNPTKGFGFVTPKEAGSDALLHASVLAKRGKRWLQEGTLVEVLIEEGPKGLVVSELLTIE | -0.84 |
| HMAGTRRFELVEGSSSKFWEVTVADGSYTVTYGRIGTAGGSKTTESATAEADAEKLVREKLKKGYQEAGAA | 0.102 |
| HMAGTRVWSENGQLYVTAAVSGRANVYNVLGKLNRSLTFSAGETKSVSVPAGIYVVSLNNGKAYKVAV | -3.28 |
| HMAGWIPVEERLPDDLTNPITRDAYVYPVTVDLGDVTDIRYYSFWRGHWYNQGPETMDDLVIAWMLLPEPY | -0.279 |
| HMAHESYVKEQLLLSLTNHEDPIMQISLIEQLTKMHERNIIHELEKLTVDVQTNEEVKVQAYASLLILS | -0.869 |
| HMAHKYYSIMRPVSIGTFPDNGTILGIVNFDTRQMVESIGKMAWGYINYGKPLTEKQISDYELVAE | -1.4 |
